This is an account of results in the supplement of paper PMC10724198.

± gives the standard deviation of the averaged measurements.

This data set concerns Saccharomyces cerevisiae. Briefly: protein stability index of tFT-peptide fusion (C-terminal peptide) (PSI (0-1 scale)); higher = more stable (slower turnover). The conditions noted are these: temperature: 30 C. The protocol: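 MPS profiling in S. cerevisiae of the yeast C-terminome library: the last 12 aa of each annotated ORF are fused to the C-terminus of a sfGFP-mCherry timer, after a GGGS linker. Cells are FACS-sorted into 8 mCherry/sfGFP bins and deep-sequenced. PSI runs from 0 (unstable) to 1 (stable); wild type and das1Δ backgrounds, two technical replicates each.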

The mark [1] stands for this setting: genetic background: das1 deletion.

ATLINILLELFS [ECM27 C-terminal 12 aa] yielded a protein stability index under setting [1] of 0.632 ± 0.014 and a protein stability index (genetic background: wild type) of 0.63 ± 0.018.
Taken in the same sequence, the figures for ATSTAAAADKKT [HAP2 C-terminal 12 aa] were 0.6674 ± 0.0023 and 0.724 ± 0.04.
For AVHLQAIDLLNC [PIR1 C-terminal 12 aa], in that order: 0.714 ± 0.024 and 0.672 ± 0.01.
Taken in the same sequence, the figures for AVIVHSYTVQHM [TRM3 C-terminal 12 aa] were 0.695 ± 0.032 and 0.632 ± 0.046.
Turning to AVKINRNGKPRI [TAO3 C-terminal 12 aa], the protein stability index reads like this: under setting [1], 0.698 ± 0.014; (genetic background: wild type) 0.6846 ± 0.0048.
For AVVLQSIQFTSE [IML3 C-terminal 12 aa], the protein stability index reads like this: under setting [1], 0.621 ± 0.018; (genetic background: wild type) 0.608 ± 0.024.
AWDKFKLQNDIN [SWA2 C-terminal 12 aa]: the protein stability index is, setting by setting: under setting [1], 0.736 ± 0.015; (genetic background: wild type) 0.698 ± 0.03.
As for AYFIDVVGCSGL [LIH1 C-terminal 12 aa], the protein stability index came to 0.706 ± 0.00073 under setting [1] and 0.705 ± 0.025 (genetic background: wild type).
Regarding AYLLFYTIRQVN [UBP8 C-terminal 12 aa], the protein stability index came out at 0.366 ± 0.012 under setting [1] and 0.14 ± 0.011 (genetic background: wild type).
For AYQIRQEVLQSL [SGA1 C-terminal 12 aa], in that order: 0.65923 ± 0.00056 and 0.672 ± 0.012.
Taken in the same sequence, the figures for AYVLFYHRVYGV [DOA4 C-terminal 12 aa] were 0.691 ± 0.011 and 0.648 ± 0.026.
For the sequence CDIQEEQVDITA [PUP1 C-terminal 12 aa], the protein stability index is, setting by setting: under setting [1], 0.695 ± 0.0088; (genetic background: wild type) 0.682 ± 0.015.
For “CEYGTNAIDALI [YER091C-A C-terminal 12 aa]”, in that order: 0.7311 ± 0.0014 and 0.6917 ± 0.0036.
Taken in the same sequence, the figures for CICSGMLFEMDG [SIN4 C-terminal 12 aa] were 0.696 ± 0.011 and 0.716 ± 0.067.
In turn, CIPLINYHLRKS [CBS1 C-terminal 12 aa] came in with a protein stability index under setting [1] of 0.709 ± 0.022 and a protein stability index (genetic background: wild type) of 0.673 ± 0.023.
For CKDQTVTQILAT [DMO1 C-terminal 12 aa], in that order: 0.6533 ± 0.0054 and 0.682 ± 0.029.
Taken in the same sequence, the figures for “CLCLINLCCDVF [YDR034W-B C-terminal 12 aa]” were 0.267 ± 0.0034 and 0.295 ± 0.0068.
Sequence CMESNPPVFMAI [YNL296W C-terminal 12 aa] registered a protein stability index under setting [1] of 0.709 ± 0.035 and a protein stability index (genetic background: wild type) of 0.713 ± 0.021.
Taken in the same sequence, the figures for CRGIAEVNMKYT [PPS1 C-terminal 12 aa] were 0.6869 ± 0.0036 and 0.6326 ± 0.0059.
In turn, CTFIYFLYFSLF [YBL070C C-terminal 12 aa] displayed a protein stability index under setting [1] of 0.325 ± 0.0072 and a protein stability index (genetic background: wild type) of 0.288 ± 0.03.
For CWENVRKTRAAK [PSO2 C-terminal 12 aa], in that order: 0.692 ± 0.0083 and 0.6966 ± 0.005.
Regarding CYTEEEWSKIVV [BOL2 C-terminal 12 aa], the protein stability index is 0.7072 ± 0.003 under setting [1] and 0.717 ± 0.019 (genetic background: wild type).
Turning to DACIKRWNVVLE [AIP1 C-terminal 12 aa], the protein stability index runs as follows: under setting [1], 0.684 ± 0.023; (genetic background: wild type) 0.71 ± 0.049.
Taken in the same sequence, the figures for DDDDDDDGQITA [YHR131C C-terminal 12 aa] were 0.677 ± 0.027 and 0.6663 ± 0.004.
Take DDEIDSEEDENA [SDD3 C-terminal 12 aa]: the protein stability index by setting is: under setting [1], 0.69 ± 0.035; (genetic background: wild type) 0.653 ± 0.018.
For the sequence DDFKKAFREKRK [ALY1 C-terminal 12 aa], the protein stability index worked out at 0.729 ± 0.013 under setting [1] and 0.676 ± 0.044 (genetic background: wild type).
For DEDDDEDVTDQE [DLS1 C-terminal 12 aa], in that order: 0.6663 ± 0.004 and 0.677 ± 0.013.
Taken in the same sequence, the figures for DEEEEIEPEVKA [SBA1 C-terminal 12 aa] were 0.678 ± 0.017 and 0.685 ± 0.027.
In the case of DEQPTLSQSKTK [DAD1 C-terminal 12 aa], the protein stability index runs as follows: under setting [1], 0.708 ± 0.012; (genetic background: wild type) 0.714 ± 0.076.
DFIKNPNDYFKQ [BEM2 C-terminal 12 aa]: the protein stability index turned out to be 0.73319 ± 0.00064 under setting [1] and 0.729 ± 0.1 (genetic background: wild type).
For DFSASSSVEEVK [MFT1 C-terminal 12 aa], in that order: 0.7088 ± 0.004 and 0.662 ± 0.011.
DGTTSKDSEKKK [COA4 C-terminal 12 aa]: the protein stability index came to 0.708 ± 0.011 under setting [1] and 0.648 ± 0.011 (genetic background: wild type).
On to DHDVSLEEVINI [MCY1 C-terminal 12 aa], for which the protein stability index was found to be 0.722 ± 0.034 under setting [1] and 0.706 ± 0.02 (genetic background: wild type).
Taken in the same sequence, the figures for DIFDPVDFVSFF [OAF3 C-terminal 12 aa] were 0.772 ± 0.033 and 0.752 ± 0.034.
